Assay [1] concerns the target T1, recombinant mouse ROR1 protein (Acrobiosystems, RO1-M5221) (mouse, UniProt Q9Z139 30-403).
T1 construct: Bought protein; also called mouse ROR1 antigen
Briefly: ELISA, wells coated with recombinant mouse ROR1 protein, IgG titrated, HRP anti-Fab detection, OD (450-650nm). The procedure: (§1) Anti-ROR1 antibody antigen binding affinity was assessed using an ELISA-based solution binding assay. Specifically, a 96-well microtiter plate (Nunc-Immuno Plates), NUNC) was coated for 16 hours at 4° C. with the ROR1 protein described below at a concentration of 1 in PBS solution, and non-specific binding sites were blocked for 2 hours with 3% BSA (bovine serum albumin). Here, the ROR1 protein used was, in the case of human ROR1, the ROR1-Fc or recombinant human ROR1-His (Sino Biological, 13968-H08H) of Embodiment 1. The ROR1-His used in ELISA, as stated in the above sentence, was a protein from the Sino Biological company (13968-H08H), and the ROR1-His of Embodiment 1 or recombinant mouse ROR1 protein was used (Acrobiosystems, RO1-M5221-100 )
(§2) Subsequently, the anti-ROR1 antibodies prepared in Embodiment 3 were added at the concentrations stated in FIG. 2 to a 96-well microtiter plate, and binding capacity was analyzed using ELISA as follows. Specifically, after incubating for 2 hours, the plate was washed 5 times with PBS containing 0.05% Tween 20, then HRP-conjugated Fab multiclonal antibody reagent (Perce, 31414) was diluted to 1:10,000 and placed in the washed microtiter plate. After reacting for 1 hour at 37° C., the ROR1 antibodies bonded to the plate were detected. After the reaction, color development was performed using TMB (Tetramethylbenzidine, Sigma, T0440). The enzymatic reaction was stopped using 0.5 mol/L sulfuric acid, and absorbance at 450 nm and 650 nm was measured (450 nm-650 nm) using a micro plate reader (Molecular Device)

Assay [2] deals with T2, recombinant human ROR1-His (Sino Biological, 13968-H08H) (human, UniProt Q01973 30-406).
T2 construct: extracellular domain; Bought protein; also called ROR1-HIS protein; not shown: His tag
T2 sequence (Q01973 30-406): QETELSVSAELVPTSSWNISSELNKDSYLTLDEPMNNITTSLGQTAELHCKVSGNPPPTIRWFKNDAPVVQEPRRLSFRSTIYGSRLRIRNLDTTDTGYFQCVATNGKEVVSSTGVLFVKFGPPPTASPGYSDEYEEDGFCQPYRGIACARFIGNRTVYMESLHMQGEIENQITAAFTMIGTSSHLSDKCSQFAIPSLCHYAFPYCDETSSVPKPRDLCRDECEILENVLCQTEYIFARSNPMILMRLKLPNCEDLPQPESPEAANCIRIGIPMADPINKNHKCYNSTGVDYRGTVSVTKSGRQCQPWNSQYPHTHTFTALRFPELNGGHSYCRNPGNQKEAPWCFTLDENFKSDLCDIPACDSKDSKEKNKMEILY
Briefly: BLI (Octet), ROR1-His on Anti-Penta-His or AR2G biosensor, IgG 30 to 0.021 nM, 1:1 fit. How it is done: A 96-well black microplate (greiner bio one) was mounted on a biosensor tray case, and 200 10×KB or DW was added to each of 8 wells. Then Anti Penta His biosensors or 8 AR2G biosensors (ForteBio, USA) were inserted to hydrate for 10 minutes. 600 of the assay samples were diluted 2-fold or 3-fold to the appropriate assay concentrations, using 1×KB or 10×KB to 30 to 0.021 nM. To immobilize the antigen, recombinant human ROR1-His (Sino Biological, 13968-H08H) was diluted to 1 /ML with 10×KB or Sodium Acetate pH5 buffer. Immobilization was fixed at a threshold of 0.3 nm in the loading step. The association assay was carried out for 3 to 10 minutes, and the dissociation assay was carried out for 20 minutes. According to the Octet program template, the buffer was placed in a new 96-well black microplate according to order. As Baseline1, 200 10×KB or DW was placed. Then 200 each of 1 /mL of the antigen to be loaded, the ROR1-HIS protein, was added. As Baseline2, 200 10×KB or 1×KB was placed. Then to each well 30 to 0.021 nM of the diluted antibody and 200 each of 10×KB buffer or 1×KB corresponding to a reference blank was added. The temperature of the test plate was fixed at 30° C. After all of the samples were introduced, the equipment was started, and after the assay was completed, results were uploaded to the Octet Analysis 90 software, with KD values analyzed through 1:1 fitting. By obtaining KD values through the Octet assay method, it was confirmed that the anti-ROR1 antibody had strong binding potential to ROR1 antigen.
For orientation: Biolayer interferometry detects binding as a change in optical thickness at a sensor tip.

For assay [3], the target named is T3, human ROR2 over-expressed on CHO cells (CHO-human ROR2) (human, UniProt Q01974 34-943).
T3 construct: whole, on cells; Negative control; also called family protein human ROR2
T3 sequence (Q01974 34-943): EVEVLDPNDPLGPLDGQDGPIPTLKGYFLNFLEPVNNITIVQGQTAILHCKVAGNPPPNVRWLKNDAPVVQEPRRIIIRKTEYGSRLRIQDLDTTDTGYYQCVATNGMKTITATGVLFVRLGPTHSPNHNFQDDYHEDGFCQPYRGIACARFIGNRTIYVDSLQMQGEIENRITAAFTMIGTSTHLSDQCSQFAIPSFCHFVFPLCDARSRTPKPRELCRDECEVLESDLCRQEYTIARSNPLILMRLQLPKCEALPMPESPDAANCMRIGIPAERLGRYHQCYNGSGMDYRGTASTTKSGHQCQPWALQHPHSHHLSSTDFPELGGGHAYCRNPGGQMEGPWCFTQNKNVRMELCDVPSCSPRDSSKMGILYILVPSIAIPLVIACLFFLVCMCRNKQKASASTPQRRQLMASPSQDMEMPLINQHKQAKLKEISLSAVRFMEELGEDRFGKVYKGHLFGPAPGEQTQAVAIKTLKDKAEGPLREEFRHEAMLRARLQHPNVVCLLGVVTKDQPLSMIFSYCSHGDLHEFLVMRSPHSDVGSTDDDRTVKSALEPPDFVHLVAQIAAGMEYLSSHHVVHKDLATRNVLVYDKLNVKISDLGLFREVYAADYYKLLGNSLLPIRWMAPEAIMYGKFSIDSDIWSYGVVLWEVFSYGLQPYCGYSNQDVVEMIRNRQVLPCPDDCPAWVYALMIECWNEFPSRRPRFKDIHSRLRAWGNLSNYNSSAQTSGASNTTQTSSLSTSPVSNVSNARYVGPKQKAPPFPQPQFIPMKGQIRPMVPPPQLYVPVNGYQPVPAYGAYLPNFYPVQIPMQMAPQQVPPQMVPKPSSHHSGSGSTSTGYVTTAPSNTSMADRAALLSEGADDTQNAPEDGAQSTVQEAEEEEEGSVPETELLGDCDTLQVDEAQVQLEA
In words: flow cytometry on CHO-S cells transiently over-expressing human ROR2, FITC anti-human Fc detection, MFI ratio to 2nd Ab alone. From the text: For this experiment, using cell lines (FIG. 5 and FIG. 7, respectively) transiently (CHO-human ROR1, CHO-human ROR2, CHO-mouse ROR1) or stably (MC38-human ROR1) transfected with ROR1 gene to achieve artificial over-expression of ROR1 protein, an ROR1-expressing cell line (JeKo-1, Mino) (FIG. 6), a non ROR1-expressing cell line (MCF7) (FIG. 6) and a FACSCalibur (BD Biosciences) device was used to measure the degree to which anti-ROR1 antibody and ROR1 were bound, as follows. […] JeKo-1, Mino, CHO-human ROR1, CHO-mouse ROR1 and MC38-human ROR1 are all cell lines which express human ROR1 or mouse ROR1.
Specifically, after dissociating each cell line and washing in PBS, the number of cells was counted and adjusted to 2×10⁵ cells/200 PBS. Then the respective ROR1 monoclonal antibodies prepared in Embodiment 3 were diluted 5 times from 10 /mL or 10 /mL, then reacted for 1 hour at 4° C. After the reaction, the cells were washed in PBS, then FITC-marked constant region (Fc) specific antibody (Goat anti-human IgG FITC conjugate, Fc specific, Sigma, F9512, concentration 20 mg/ml) was suspended in 2 /1×10⁵ cells/200 PBS and reacted for 1 hour at 4° C. As for identification of the degree of expression of the transiently over-expressed human ROR1, human ROR2 and mouse ROR1, a commercially available FACS analysis antibody (anti-ROR1: R&D Systems, FAB 2000G, anti-ROR2: R&D, FAB20641P) was used. After reacting the cells were washed in PBS and analyzed using a FACSCalibur device. The negative control (2nd Ab) was only treated with FITC-marked constant region (Fc) specific antibody. The shifted readings for the respective experimental groups treated with ROR1 monoclonal antibody were compared against the shifted reading for the control group (MFI Ratio: MFI of anti-ROR1/MFI of 2nd Ab).
For orientation: In flow cytometry, cells or beads pass a laser one at a time.

In assay [4] the target is T2, recombinant human ROR1-His (Sino …). Briefly: ELISA, wells coated with human ROR1 protein (sheet: 'human ROR1'; text: ROR1-Fc or ROR1-His), IgG titrated, HRP anti-Fab detection, OD (450-650nm). How it is done: as §1, §2
In general terms: In an ELISA, binding on a coated surface is turned into a signal by an enzyme label.

Assay [5] deals with T4, BCMA-Fc, a recombinant protein where the extracellular domain of human BCMA protein is linked to human Fc (human, UniProt Q02223 1-54).
T4 construct: extracellular domain; Negative control in panning and ELISA; also called negative control-Fc
T4 sequence (looked up): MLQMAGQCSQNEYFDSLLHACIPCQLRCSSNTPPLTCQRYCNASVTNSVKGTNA
Briefly: ELISA, wells coated with BCMA-Fc (negative control), monoclonal scFv supernatant, anti-HA HRP detection, OD (450-650nm). How it is done: Specifically, 100 ng per well of recombinant human ROR1-Fc prepared in Embodiment 1-1 or FBMA-Fc was placed in a 96-well microtiter plate (Nunc-Immuno Plate, NUNC, USA), which was coated overnight at 4° C. BCMA-Fc is the protein used as a negative control, a recombinant protein where the extracellular domain of human BCMA protein is linked to human Fc. 200 μL each of 3% BSA was placed in each well, and blocked for 2 hours at 37° C.
The monoclonal phage supernatant was prepared by mixing 1:1 with 3% BSA, and 100 μL each of this mixture was loaded into the wells and reacted for 2 hours at 37° C. After washing 5 times with 300 μL PBST, anti-HA HRP binding antibody was added, reacted for 1 hour at 37° C., then washed 5 times with PBST. 100 μL TMB (Tetramethylbenzidine, Sigma, T0440) was added for color development, and then 50 μL 1N H2SO₄ was added to stop the reaction. Absorbance was measured at 450 nm and 650 nm, and clones where the absorbance at 450 nm and 650 nm was […] when coated with 1 /mL ROR1 were screened (FIG. 1)

T1 sequence (Q9Z139 30-403 limits assumed): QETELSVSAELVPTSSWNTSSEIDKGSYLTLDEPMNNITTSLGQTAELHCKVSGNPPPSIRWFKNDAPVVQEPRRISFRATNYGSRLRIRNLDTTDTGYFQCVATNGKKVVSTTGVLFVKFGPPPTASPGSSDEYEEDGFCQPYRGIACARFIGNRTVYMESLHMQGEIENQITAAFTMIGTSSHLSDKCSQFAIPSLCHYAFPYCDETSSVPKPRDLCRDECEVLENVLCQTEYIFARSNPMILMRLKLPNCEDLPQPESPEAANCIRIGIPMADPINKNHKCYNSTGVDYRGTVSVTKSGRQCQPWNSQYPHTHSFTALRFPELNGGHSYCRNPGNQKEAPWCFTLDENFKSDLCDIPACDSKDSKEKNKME

B1: anti-ROR1 IgG antibody DG6 (antibody, V domains shown)
VH: EVQLLESGGGLVQPGGSLRLSCAASGFTFSDYDMSWVRQAPGKGLEWVSVISPDGGSIYYADSVKGRFTISRDNSKNTLYLQMNSLRAEDTAVYYCARDVVECNMNPCSYDNAMDVWGQGTLVTVSS
VL: QSVLTQPPSASGTPGQRVTISCSGSSSNIGSNYVSWYQQLPGTAPKLLIYDDSHRPSGVPDRFSGSKSGTSASLAISGLRSEDEADYYCGAWDDSLSGYVFGGGTKLTVLG
notes: Full IgG form (human IgG1 constant region, lambda light chain), expressed in CHO-S cells
The EC50 (read off the curve) is the concentration giving half of the maximal effect. The term Kd denotes the free concentration of one partner at which half of the binding sites on the other are occupied at equilibrium, for simple one-to-one binding. The term koff denotes the first-order rate constant of dissociation. The kon is a measure of how fast the partners come together. As for B1, the “EC50 (read off the curve)” value in assay [1] was approximately 0.1 nM. Moreover, in assay [2], the Kd was determined as 0.152 nM, the koff worked out at 0.000338 s⁻¹ and the kon is 2.23e+06 M⁻¹ s⁻¹. In addition, the binding result in assay [3] is “no binding”. In addition, the “EC50 (read off the curve)” value in assay [4] is approximately 0.1 nM.

B2: anti-ROR1 monoclonal phage antibody D2B12 (soluble scFv) (scFv, V domains shown)
VH: EVQLLESGGGLVQPGGSLRLSCAASGFTFSNYDMSWVRQAPGKGLEWVSSISPSSGSSIYYADSVKGRFTISRDNSKNTLYLQMNSLRAEDTAVYYCAKAPGWCQAPSCYYDNAMDVWGQGTLVTVSS
VL: QSVLTQPPSASGTPGQRVTISCSGSSSNIGNNDVSWYQQLPGTAPKLLIYDDSQRPSGVPDRFSGSKSGTSASLAISGLRSEDEADYYCGAWDDSLSGYVFGGGTKLTVLG
notes: Tested as soluble scFv in culture supernatant, detected through an HA tag
Regarding B2, the binding result in assay [5] is recorded as “no binding”.

B3: anti-ROR1 monoclonal phage antibody CC9 (soluble scFv) (scFv, V domains shown)
VH: EVQLLESGGGLVQPGGSLRLSCAASGFTFSSYDMSWVRQAPGKGLEWVSGISHGSGNKYYADSVKGRFTISRDNSKNTLYLQMNSLRAEDTAVYYCAKRLSLRRRPSYYSDNAMDVWGQGTLVTVSS
VL: QSVLTQPPSASGTPGQRVTISCTGSSSNIGNNAVNWYQQLPGTAPKLLIYYDSNRPSGVPDRFSGSKSGTSASLAISGLRSEDEADYYCGAWDDSLSGYVFGGGTKLTVLG
notes: as for B2
On to B3, for which the binding result in assay [5] is on record as “no binding”.

B4: anti-ROR1 monoclonal phage antibody C2E3 (soluble scFv) (scFv, V domains shown)
VH: EVQLLESGGGLVQPGGSLRLSCAASGFTFSNYAMSWVRQAPGKGLEWVSSISHNSGSTYYADSVKGRFTISRDNSKNTLYLQMNSLRAEDTAVYYCAKFISARKSLGRSYSNGMDVWGQGTLVTVSS
VL: QSVLTQPPSASGTPGQRVTISCTGSSSNIGSNDVTWYQQLPGTAPKLLIYADSKRPSGVPDRFSGSKSGTSASLAISGLRSEDEADYYCGTWDYSLSGYVFGGGTKLTVLG
notes: as for B2
As for B4, in assay [5], the binding result is on record as “no binding”.

B5: anti-ROR1 monoclonal phage antibody BA6 (soluble scFv) (scFv, V domains shown)
VH: EVQLLESGGGLVQPGGSLRLSCAASGFTFSNYDMSWVRQAPGKGLEWVSAIYHSGSSKYYADSVKGRFTISRDNSKNTLYLQMNSLRAEDTAVYYCARGGNGAWDTGFDYWGQGTLVTVSS
VL: QSVLTQPPSASGTPGQRVTISCSGSSSNIGSNDVSWYQQLPGTAPKLLIYYDNNRPSGVPDRFSGSKSGTSASLAISGLRSEDEADYYCGAWDDSLSGYVFGGGTKLTVLG
notes: as for B2
In the case of B5, the binding result in assay [5] was “no binding”.

B6: anti-ROR1 monoclonal phage antibody A2F2 (soluble scFv) (scFv, V domains shown)
VH: EVQLLESGGGLVQPGGSLRLSCAASGFTFSDYYMSWVRQAPGKGLEWVSSISPDGSNTYYADSVKGRFTISRDNSKNTLYLQMNSLRAEDTAVYYCAKNLRAFDYWGQGTLVTVSS
VL: QSVLTQPPPASGTPGQRVTISCSGSSSNIGSNTVYWYQQLPGTAPKLLIYANSQRPSGVPDRFSGSKSGTSASLAISGLRSEDEADYYCGSWDYSLSGYVFGGGTKLTVLG
notes: as for B2
With B6, the binding result in assay [5] is “no binding”.

B7: anti-ROR1 monoclonal phage antibody AB4 (soluble scFv) (scFv, V domains shown)
VH: EVQLLESGGGLVQPGGSLRLSCAASGFTFSSYDMSWVRQAPGKGLEWVSWISPDSGSIYYADSVKGRFTISRDNSKNTLYLQMNSLRAEDTAVYYCARPTGRFDYWGQGTLVTVSS
VL: QSVLTQPPSASGTPGQRVTISCSGSSSNIGNNNVNWYQQLPGTAPKLLIYYDNKRPSGVPDRFSGSKSGTSASLAISGLRSEDEADYYCGTWDASLSGYVFGGGTKLTVLG
notes: as for B2
As for B7, in assay [5], the binding result is “no binding”.

B8: anti-ROR1 monoclonal phage antibody DG6 (soluble scFv) (scFv, V domains shown)
VH: EVQLLESGGGLVQPGGSLRLSCAASGFTFSDYDMSWVRQAPGKGLEWVSVISPDGGSIYYADSVKGRFTISRDNSKNTLYLQMNSLRAEDTAVYYCARDVVECNMNPCSYDNAMDVWGQGTLVTVSS
VL: QSVLTQPPSASGTPGQRVTISCSGSSSNIGSNYVSWYQQLPGTAPKLLIYDDSHRPSGVPDRFSGSKSGTSASLAISGLRSEDEADYYCGAWDDSLSGYVFGGGTKLTVLG
notes: as for B2
Take B8: the binding result in assay [5] is “no binding”.

B9: anti-ROR1 monoclonal phage antibody A2F3 (soluble scFv) (scFv, V domains shown)
VH: EVQLLESGGGLVQPGGSLRLSCAASGFTFSSYDMSWVRQAPGKGLEWVSWISPGGGSKYYADSVKGRFTISRDNSKNTLYLQMNSLRAEDTAVYYCARVNGRFDYWGQGTLVTVSS
VL: QSVLTQPPSASGTPGQRVTISCSGSSSNIGNNNVSWYQQLPGTAPKLLIYADSHRPSGVPDRFSGSKSGTSASLAISGLRSEDEADYYCATWDYSLSGYVFGGGTKLTVLG
notes: as for B2
Take B9: the binding result in assay [5] is recorded as “no binding”.

For the origin of these results see patent US20210069342A1 (LEGOCHEM BIOSCIENCES, published 2021).
